B1: Endoglin (Homo sapiens), P17813 (parent)
chain: MDRGTLPLAVALLLASCSLSPTSLAETVHCDLQPVGPERGEVTYTTSQVSKGCVAQAPNAILEVHVLFLEFPTGPSQLELTLQASKQNGTWPREVLLVLSVNSSVFLHLQALGIPLHLAYNSSLVTFQEPPGVNTTELPSFPKTQILEWAAERGPITSAAELNDPQSILLRLGQAQGSLSFCMLEASQDMGRTLEWRPRTPALVRGCHLEGVAGHKEAHILRVLPGHSAGPRTVTVKVELSCAPGDLDAVLILQGPPYVSWLIDANHNMQIWTTGEYSFKIFPEKNIRGFKLPDTPQGLLGEARMLNASIVASFVELPLASIVSLHASSCGGRLQTSPAPIQTTPPKDTCSPELLMSLIQTKCADDAMTLVLKKELVAHLKCTITGLTFWDPSCEAEDRGDKFVLRSAYSSCGMQVSASMISNEAVVNILSSSSPQRKKVHCLNMDSLSFQLGLYLSPHFLQASNTIEPGQQSFVQVRVSPSVSEFLLQLDSCHLDLGPEGGTVELIQGRAAKGNCVSLLSPSPEGDPRFSFLLHFYTVPIPKTGTLSCTVALRPKTGSQDQEVHRTVFMRLNIISPDLSGCTSKGLVLPAVLGITFGAFLIGALLTAALWYIYSHTRSPSKREPVVAVAAPASSESSSTNHSIGSTQSTPCSTSSMA

Variants of: B1
Conditions: with arrb2_human ARRB2, P32121
Sequence of arrb2_human ARRB2, P32121 (P32121 whole entry): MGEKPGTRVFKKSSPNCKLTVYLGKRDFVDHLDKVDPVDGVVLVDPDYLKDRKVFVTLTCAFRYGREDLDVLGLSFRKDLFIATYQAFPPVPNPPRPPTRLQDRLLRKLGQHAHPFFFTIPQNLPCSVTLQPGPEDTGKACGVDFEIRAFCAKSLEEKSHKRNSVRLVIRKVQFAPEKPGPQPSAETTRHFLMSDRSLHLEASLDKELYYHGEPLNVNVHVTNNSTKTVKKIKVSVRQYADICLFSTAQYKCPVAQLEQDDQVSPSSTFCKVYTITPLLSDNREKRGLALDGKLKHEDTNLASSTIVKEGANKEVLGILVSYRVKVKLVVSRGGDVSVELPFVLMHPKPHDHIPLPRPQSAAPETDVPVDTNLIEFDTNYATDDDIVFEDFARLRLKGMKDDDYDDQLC

effect of a mutation on the interaction | Variant
disrupting interaction | T650A
